Experimental data as given in US20040091503A1.

Target: murine GM-CSF receptor (on FDC-P1 cells) (murine) (UniProt Q00941)
Test: cell-based or functional assay

UniProt Q00941, sequence (Q00941 30-388, chain 1 of 2): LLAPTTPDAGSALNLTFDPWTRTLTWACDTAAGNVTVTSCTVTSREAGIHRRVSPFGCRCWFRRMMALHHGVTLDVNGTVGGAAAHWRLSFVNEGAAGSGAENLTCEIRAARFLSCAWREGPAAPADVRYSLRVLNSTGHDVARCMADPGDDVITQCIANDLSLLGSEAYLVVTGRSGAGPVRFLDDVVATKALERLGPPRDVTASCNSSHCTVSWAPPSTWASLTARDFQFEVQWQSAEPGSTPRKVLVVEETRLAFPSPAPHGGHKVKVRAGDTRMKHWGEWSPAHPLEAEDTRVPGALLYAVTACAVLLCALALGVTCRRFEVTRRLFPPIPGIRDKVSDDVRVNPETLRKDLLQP
UniProt Q00941, sequence (P26955 23-896, chain 2 of 2, further chain): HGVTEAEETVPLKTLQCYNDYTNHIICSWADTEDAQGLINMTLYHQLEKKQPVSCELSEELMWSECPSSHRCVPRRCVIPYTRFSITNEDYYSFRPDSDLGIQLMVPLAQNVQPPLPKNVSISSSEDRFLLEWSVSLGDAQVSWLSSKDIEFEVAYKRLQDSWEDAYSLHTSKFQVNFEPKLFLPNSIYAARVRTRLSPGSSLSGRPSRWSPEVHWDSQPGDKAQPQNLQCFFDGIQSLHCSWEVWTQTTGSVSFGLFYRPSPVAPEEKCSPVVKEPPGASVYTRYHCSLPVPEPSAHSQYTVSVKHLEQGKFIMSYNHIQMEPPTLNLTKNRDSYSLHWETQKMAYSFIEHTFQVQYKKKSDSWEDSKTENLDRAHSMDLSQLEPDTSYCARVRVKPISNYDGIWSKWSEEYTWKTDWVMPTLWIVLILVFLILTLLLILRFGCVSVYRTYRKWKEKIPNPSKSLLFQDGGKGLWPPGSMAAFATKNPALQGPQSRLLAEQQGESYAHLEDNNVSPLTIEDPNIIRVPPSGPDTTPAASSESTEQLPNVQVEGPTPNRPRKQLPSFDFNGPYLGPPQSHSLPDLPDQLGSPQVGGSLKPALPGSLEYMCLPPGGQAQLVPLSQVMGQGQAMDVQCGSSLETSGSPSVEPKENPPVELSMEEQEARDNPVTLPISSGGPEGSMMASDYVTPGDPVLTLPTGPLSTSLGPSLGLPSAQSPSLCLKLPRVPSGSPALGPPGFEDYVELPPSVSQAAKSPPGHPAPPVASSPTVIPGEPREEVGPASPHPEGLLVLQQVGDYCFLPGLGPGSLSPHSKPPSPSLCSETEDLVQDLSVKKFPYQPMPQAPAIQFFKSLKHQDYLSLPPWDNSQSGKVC

- proliferation of FDC-P1 cells (Biotrak Cell Proliferation ELISA, BrdU): 25%
Substance: GPI-GM-CSF (murine GM-CSF fused to the S. cerevesiae Gas1 GPI modification signal sequence) (from UniProt P01587 18-141; P22146 474-528) (ligand; the values are: proliferation increase over soluble GM-CSF)
